Reference: the Immune Epitope Database (IEDB)

Columns and labels:
[1] = biological target: HLA-A*01:01; assay: IEDB peptide-MHC binding, purified MHC/direct/fluorescence; filed as Kd, often an IC50 or EC50 that approximates it; ≥ and ≤ were set here for values at or beyond the usual limits of such assays; settings: source organism: Influenza A virus (A/mallard/NZ/1/97(H5N2))
[2] = biological target: HLA-B*27:05; assay: as above; settings: source organism: Influenza A virus (A/mallard/NZ/1/97(H5N2))
[3] = biological target: HLA-B*08:02; assay: as above; settings: source organism: Influenza A virus(A/swine/Shandong/fZC/2003(H9N2))
[4] = biological target: HLA-A*11:01; assay: as above; settings: source organism: Influenza A virus (A/mallard/NZ/1/97(H5N2))
[5] = biological target: HLA-A*69:01; assay: as above; settings: source organism: Influenza A virus (A/mallard/NZ/1/97(H5N2))
[6] = biological target: HLA-B*15:09; assay: as above; settings: source organism: Influenza A virus(A/swine/Shandong/fZC/2003(H9N2))
[7] = biological target: HLA-A*26:01; assay: as above; settings: source organism: Influenza A virus(A/swine/Shandong/fZC/2003(H9N2))
[8] = biological target: HLA-A*02:01; assay: as above; settings: source organism: Influenza A virus (A/mallard/NZ/1/97(H5N2))
[9] = biological target: HLA-A*03:01; assay: as above; settings: source organism: Influenza A virus (A/mallard/NZ/1/97(H5N2))
[10] = biological target: HLA-B*15:01; assay: as above; settings: source organism: Influenza A virus (A/mallard/NZ/1/97(H5N2))
[11] = biological target: HLA-B*44:02; assay: as above; settings: source organism: Influenza A virus (A/mallard/NZ/1/97(H5N2))
[12] = biological target: HLA-B*40:01; assay: as above; settings: source organism: Influenza A virus (A/mallard/NZ/1/97(H5N2))
[13] = biological target: HLA-B*58:01; assay: as above; settings: source organism: Influenza A virus (A/mallard/NZ/1/97(H5N2))
[14] = biological target: HLA-A*24:02; assay: as above; settings: source organism: Influenza A virus (A/mallard/NZ/1/97(H5N2))
[15] = biological target: HLA-B*07:02; assay: as above; settings: source organism: Influenza A virus (A/mallard/NZ/1/97(H5N2))
[16] = biological target: HLA-B*46:01; assay: as above; settings: source organism: Influenza A virus (A/mallard/NZ/1/97(H5N2))
[17] = biological target: HLA-B*08:01; assay: as above; settings: source organism: Influenza A virus (A/mallard/NZ/1/97(H5N2))
[18] = biological target: HLA-A*31:01; assay: as above; settings: source organism: Influenza A virus (A/mallard/NZ/1/97(H5N2))
[19] = biological target: HLA-B*40:02; assay: IEDB peptide-MHC binding, purified MHC/competitive/radioactivity; filed as Kd, often an IC50 or EC50 that approximates it; ≥ and ≤ were set here for values at or beyond the usual limits of such assays
[20] = biological target: HLA-B*18:01; assay: as above
[21] = biological target: HLA-B*44:02; assay: as above
[22] = biological target: HLA-B*40:01; assay: as above
[23] = biological target: HLA-B*45:01; assay: as above
[24] = biological target: HLA-B*44:03; assay: as above
[25] = biological target: HLA-A*01:01; assay: IEDB peptide-MHC binding, purified MHC/competitive/fluorescence; filed as Kd, often an IC50 or EC50 that approximates it; ≥ and ≤ were set here for values at or beyond the usual limits of such assays; settings: source organism: Bacillus anthracis str. A2012
[26] = biological target: HLA-B*35:01; assay: as above; settings: source organism: Bacillus anthracis str. A2012
[27] = biological target: HLA-A*02:01; assay: IEDB peptide-MHC binding, purified MHC/competitive/fluorescence; ≥ and ≤ were set here for values at or beyond the usual limits of such assays; settings: source organism: Zaire ebolavirus
[28] = biological target: HLA-B*15:01; assay: as above; settings: source organism: Zaire ebolavirus
[29] = source organism: Lymphocytic choriomeningitis virus (strain Armstrong)
[30] = source organism: Mammarenavirus juninense

Sequence IAGFIEGGW has a Kd [1] of at least 20 µM, a Kd [2] of at least 20 µM and a Kd [3] of at least 20 µM. It also gave a Kd [4] of at least 20 µM, a Kd [5] of at least 20 µM and a Kd [6] of at least 20 µM. The Kd [7] was at least 20 µM, the Kd [8] was at least 20 µM and the Kd [9] was at least 20 µM. For the same sequence, the Kd [10] was at least 20 µM, the Kd [11] was at least 20 µM and the Kd [12] was at least 20 µM. It also gave a Kd [13] of 0.0654 µM, a Kd [14] of at least 20 µM and a Kd [15] of at least 20 µM. The Kd [16] was at least 20 µM, the Kd [17] was at least 20 µM and the Kd [18] was at least 20 µM.
IEVALRTLL showed a Kd [19, 29] of 0.0549 µM, a Kd [20, 29] of 0.0772 µM and a Kd [21, 29] of 14.6 µM. The Kd [22, 29] was 0.0644 µM, the Kd [23, 29] was 18.3 µM and the Kd [24, 29] was 3.73 µM.
ITTFFTFAY gave a Kd [25] of 0.14 µM and a Kd [26] of 0.192 µM.
Sequence KDTPGGYCL has a Kd [19, 30] of 3.48 µM, a Kd [20, 30] of at least 61 µM and a Kd [21, 30] of at least 77.9 µM. The Kd [22, 30] was 11.9 µM, the Kd [23, 30] was 18.3 µM and the Kd [24, 30] was at least 78.1 µM.
Sequence KLTEAITAA has an IC50 [27] of 2.05 µM and an IC50 [28] of at least 171 µM.
Sequence LESLWAPFGV has a Kd [19, 30] of 0.159 µM, a Kd [20, 30] of 0.607 µM and a Kd [21, 30] of at least 31.8 µM. For the same sequence, the Kd [22, 30] was at least 24.6 µM, the Kd [23, 30] was 16.1 µM and the Kd [24, 30] was at least 56.4 µM.
